# Positions count from the first letter of the chain named. Non-standard residues stand in square brackets, D forms with d. No end group written: not given here. Ala(4-thiazolyl) = N[C@@H](Cc1cscn1)C(=O)O; Nle = CCCC[C@H](N)C(=O)O
# B1: SEQ ID NO: 13 (peptide)
# peptide: [Ala(4-thiazolyl)]SQGTFTSDFSKQ[Nle]ESRRAQDFIEWLLATGPESGAPPPS-OH
# modifications: N-terminus assumed
# SMILES: CCCC[C@H](NC(=O)[C@H](CCC(N)=O)NC(=O)[C@H](CCCCN)NC(=O)[C@H](CO)NC(=O)[C@H](Cc1ccccc1)NC(=O)[C@H](CC(=O)O)NC(=O)[C@H](CO)NC(=O)[C@@H](NC(=O)[C@H](Cc1ccccc1)NC(=O)[C@@H](NC(=O)CNC(=O)[C@H](CCC(N)=O)NC(=O)[C@H](CO)NC(=O)[C@@H](N)Cc1cscn1)[C@@H](C)O)[C@@H](C)O)C(=O)N[C@@H](CCC(=O)O)C(=O)N[C@@H](CO)C(=O)N[C@@H](CCCNC(=N)N)C(=O)N[C@@H](CCCNC(=N)N)C(=O)N[C@@H](C)C(=O)N[C@@H](CCC(N)=O)C(=O)N[C@@H](CC(=O)O)C(=O)N[C@@H](Cc1ccccc1)C(=O)N[C@H](C(=O)N[C@@H](CCC(=O)O)C(=O)N[C@@H](Cc1c[nH]c2ccccc12)C(=O)N[C@@H](CC(C)C)C(=O)N[C@@H](CC(C)C)C(=O)N[C@@H](C)C(=O)N[C@H](C(=O)NCC(=O)N1CCC[C@H]1C(=O)N[C@@H](CCC(=O)O)C(=O)N[C@@H](CO)C(=O)NCC(=O)N[C@@H](C)C(=O)N1CCC[C@H]1C(=O)N1CCC[C@H]1C(=O)N1CCC[C@H]1C(=O)N[C@@H](CO)C(=O)O)[C@@H](C)O)[C@@H](C)CC
# B2: SEQ ID NO: 14 (peptide)
# peptide: XSQGTFTSDISKQXESRRAQEFIEWLLATGPESGAPPPS
# modifications: Tza (L-4-thiazolylalanine) at position 1; Nle at position 14; C-terminal -OH
# B3: SEQ ID NO: 17 (peptide)
# peptide: B2 peptide with I10Y
# modifications: Tza (L-4-thiazolylalanine) at position 1; Nle at position 14; C-terminal -OH
# B4: SEQ ID NO: 9 (peptide)
# peptide: [Ala(4-thiazolyl)]SQGTFTSDVSKQLESRRAQEFIEWLLAGGPESGAPPPS-OH
# modifications: N-terminus assumed
# SMILES: CC[C@H](C)[C@H](NC(=O)[C@H](Cc1ccccc1)NC(=O)[C@H](CCC(=O)O)NC(=O)[C@H](CCC(N)=O)NC(=O)[C@H](C)NC(=O)[C@H](CCCNC(=N)N)NC(=O)[C@H](CCCNC(=N)N)NC(=O)[C@H](CO)NC(=O)[C@H](CCC(=O)O)NC(=O)[C@H](CC(C)C)NC(=O)[C@H](CCC(N)=O)NC(=O)[C@H](CCCCN)NC(=O)[C@H](CO)NC(=O)[C@@H](NC(=O)[C@H](CC(=O)O)NC(=O)[C@H](CO)NC(=O)[C@@H](NC(=O)[C@H](Cc1ccccc1)NC(=O)[C@@H](NC(=O)CNC(=O)[C@H](CCC(N)=O)NC(=O)[C@H](CO)NC(=O)[C@@H](N)Cc1cscn1)[C@@H](C)O)[C@@H](C)O)C(C)C)C(=O)N[C@@H](CCC(=O)O)C(=O)N[C@@H](Cc1c[nH]c2ccccc12)C(=O)N[C@@H](CC(C)C)C(=O)N[C@@H](CC(C)C)C(=O)N[C@@H](C)C(=O)NCC(=O)NCC(=O)N1CCC[C@H]1C(=O)N[C@@H](CCC(=O)O)C(=O)N[C@@H](CO)C(=O)NCC(=O)N[C@@H](C)C(=O)N1CCC[C@H]1C(=O)N1CCC[C@H]1C(=O)N1CCC[C@H]1C(=O)N[C@@H](CO)C(=O)O
# Biological target: human GLP-1 receptor (human, UniProt P43220 24-463)
# Assay: cell-based or functional assay
row,Binder,"EC50 hGLP-1 R [pM], cAMP formation"
1,B1,32100 pM
2,B2,52900 pM
3,B3,6940 pM
4,B4,12200 pM

# Biological target: human glucagon receptor (human, UniProt P47871 26-477)
# Sequence (P47871 26-477): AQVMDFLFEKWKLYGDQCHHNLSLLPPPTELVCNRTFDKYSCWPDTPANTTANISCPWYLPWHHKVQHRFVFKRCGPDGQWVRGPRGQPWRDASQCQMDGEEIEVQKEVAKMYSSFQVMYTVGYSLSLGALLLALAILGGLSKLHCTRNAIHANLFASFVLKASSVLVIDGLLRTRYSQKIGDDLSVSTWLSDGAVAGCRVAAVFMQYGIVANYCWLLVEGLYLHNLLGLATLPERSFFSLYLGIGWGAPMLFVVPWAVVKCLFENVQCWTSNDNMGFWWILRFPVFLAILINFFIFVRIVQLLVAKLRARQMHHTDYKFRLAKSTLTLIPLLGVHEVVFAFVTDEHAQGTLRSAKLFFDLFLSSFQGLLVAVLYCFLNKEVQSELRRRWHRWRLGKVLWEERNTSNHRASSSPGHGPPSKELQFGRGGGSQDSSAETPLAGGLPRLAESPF
# Assay: cell-based or functional assay
row,Binder,"EC50 hGLUC R [pM], cAMP formation"
1,B1,3.1 pM
2,B2,1.2 pM
3,B3,1 pM
4,B4,2.2 pM

# Source: US20150368311A1 (Sanofi, published 2015)
